The chains are these.
B1: chimeric olfactory receptor chimeraIC3-IC4 (receptor)
chain: MNGTEGPNFYVPFSNKTGVVEQKLISEEDLEFMTLSDGNHSGAVFTLLGFSDYPELTIPLFLIFLTIYSITVVGNIGMIVIIRINPKLHIPMYFFLSHLSFVDFCYSSIVAPKMLVNLVTMNRGISFVGCLVQFFFFCTFVVTESFLLGVMAYDRFVAIRNPLLYTVAMSQRLCAMLVLGSYAWGVVCSLILTCSALNLSFYGFNMINHFFCEFSSLLSLSRSDTSVSQLLLFVFATFNEISTLLIILLSYVFREAQKQVKKIDSCERRFLSGPPRPPSPAPSPSPGPPRPADSLANGRSSKRRPSRLVALREQKAFSTCASHLTAITIFHGTILFLYCVPNSKNSRHTVKVASVFYTVVIPMLNPLIYSLRNKDFRKAFQRLLCCARRAACRRRAAHGDRPRASGCLARAGPPPSPGAPSDDDDDDAGATPPARLLEPWAGCNGGTTTVDSDSSLDEPGRQGFSSESKV
B2: chimeric olfactory receptor chimeraTM7 (receptor)
chain: MNGTEGPNFYVPFSNKTGVVEQKLISEEDLEFMTLSDGNHSGAVFTLLGFSDYPELTIPLFLIFLTIYSITVVGNIGMIVIIRINPKLHIPMYFFLSHLSFVDFCYSSIVAPKMLVNLVTMNRGISFVGCLVQFFFFCTFVVTESFLLGVMAYDRFVAIRNPLLYTVAMSQRLCAMLVLGSYAWGVVCSLILTCSALNLSFYGFNMINHFFCEFSSLLSLSRSDTSVSQLLLFVFATFNEISTLLIILLSYVLIVVTILKMKSASGRRKAFSTCASHLTAITIFHGTILFLYCVPNSKNSRHTPDRLFVFFNWLGYANSAFNPIIYCRSPDFRKAFQRLLCCARRAACRRRAAHGDRPRASGCLARAGPPPSPGAPSDDDDDDAGATPPARLLEPWAGCNGGTTTVDSDSSLDEPGRQGFSSESKV
B3: chimeric olfactory receptor chimeraIC3 (receptor)
chain: MNGTEGPNFYVPFSNKTGVVEQKLISEEDLEFMTLSDGNHSGAVFTLLGFSDYPELTIPLFLIFLTIYSITVVGNIGMIVIIRINPKLHIPMYFFLSHLSFVDFCYSSIVAPKMLVNLVTMNRGISFVGCLVQFFFFCTFVVTESFLLGVMAYDRFVAIRNPLLYTVAMSQRLCAMLVLGSYAWGVVCSLILTCSALNLSFYGFNMINHFFCEFSSLLSLSRSDTSVSQLLLFVFATFNEISTLLIILLSYVFREAQKQVKKIDSCERRFLSGPPRPPSPAPSPSPGPPRPADSLANGRSSKRRPSRLVALREQKAFSTCASHLTAITIFHGTILFLYCVPNSKNSRHTVKVASVFYTVVIPMLNPLIYSLRNKDVKDTVKKIIGTKVYSS
B4: Rho-myc-mOREG (mouse olfactory receptor for eugenol with Rho tag and myc epitope tag) (receptor)
chain: MNGTEGPNFYVPFSNKTGVVEQKLISEEDLEFMTLSDGNHSGAVFTLLGFSDYPELTIPLFLIFLTIYSITVVGNIGMIVIIRINPKLHIPMYFFLSHLSFVDFCYSSIVAPKMLVNLVTMNRGISFVGCLVQFFFFCTFVVTESFLLGVMAYDRFVAIRNPLLYTVAMSQRLCAMLVLGSYAWGVVCSLILTCSALNLSFYGFNMINHFFCEFSSLLSLSRSDTSVSQLLLFVFATFNEISTLLIILLSYVLIVVTILKMKSASGRRKAFSTCASHLTAITIFHGTILFLYCVPNSKNSRHTVKVASVFYTVVIPMLNPLIYSLRNKDVKDTVKKIIGTKVYSS
B5: chimeric olfactory receptor chimera1 (receptor)
chain: MNGTEGPNFYVPFSNKTGVVEQKLISEEDLEFMTLSDGNHSGAVFTLLGFSDYPELTIPLFLIFLTIYSITVVGNIGMIVIIRINPKLHIPMYFFLSHLSFVDFCYSSIVAPKMLVNLVTMNRGISFVGCLVQFFFFCTFVVTESFLLGVMAYDRFVAIRNPLLYTVAMSQRLCAMLVLGSYAWGVVCSLILTCSALNLSFYGFNMINHFFCEFSSLLSLSRSDTSVSQLLLFVFATFNEISTLLIILLSYVLIVVTILKMKSASGRRKAFSTCASHLTAITIFHGTILFLYCVPNSKNSRHTVKVASVFYTVVIPMLNPLIYSLRNKDFRKAFQRLLCCARRAACRRRAAHGDRPRASGCLARAGPPPSPGAPSDDDDDDAGATPPARLLEPWAGCNGGTTTVDSDSSLDEPGRQGFSSESKV
B6: chimeric olfactory receptor chimera3 (receptor)
chain: MNGTEGPNFYVPFSNKTGVVEQKLISEEDLEFMGAGALALGASEPCNLSSAAPLPDGAATAARLLVLASPPASLLPPASEGSAPLSQQWTAGMGLLLALIVLLIVVGNVLVIVAIAKTPRLQTLTNLTRPMYFFLSHLSFVDFCYSSIVAPKMLVNLVTMNRGISFVGCLVQFFFFCTFVVTESFLLGVMAYDRFVAIRNPLLYTVAMSQRLCAMLVLGSYAWGVVCSLILTCSALNLSFYGFNMINHFFCEFSSLLSLSRSDTSVSQLLLFVFATFNEISTLLIILLSYVLIVVTILKMKSASGRRKAFSTCASHLTAITIFHGTILFLYCVPNSKNSRHTVKVASVFYTVVIPMLNPLIYSLRNKSRDFRKAFQRLLCCARRAACRRRAAHGDRPRASGCLARAGPPPSPGAPSDDDDDDAGATPPARLLEPWAGCNGGTTTVDSDSSLDEPGRQGFSSESKV
B7: Rho-mOREG (mouse olfactory receptor for eugenol with N-terminal Rho tag) (receptor)
chain: MNGTEGPNFYVPFSNKTGVVMTLSDGNHSGAVFTLLGFSDYPELTIPLFLIFLTIYSITVVGNIGMIVIIRINPKLHIPMYFFLSHLSFVDFCYSSIVAPKMLVNLVTMNRGISFVGCLVQFFFFCTFVVTESFLLGVMAYDRFVAIRNPLLYTVAMSQRLCAMLVLGSYAWGVVCSLILTCSALNLSFYGFNMINHFFCEFSSLLSLSRSDTSVSQLLLFVFATFNEISTLLIILLSYVLIVVTILKMKSASGRRKAFSTCASHLTAITIFHGTILFLYCVPNSKNSRHTVKVASVFYTVVIPMLNPLIYSLRNKDVKDTVKKIIGTKVYSS

The target of one test is Gαolf (G protein alpha subunit which is specifically expressed on an olfactory epithelium) (mouse, UniProt Q8CGK7). In words: cell-based or functional assay.
Regarding B1, the “concentration increase value of the cAMP (300 µM eugenol minus 0 µM)” value amounted to 0.004 pmol/microgram.

Take B2: the “concentration increase value of the cAMP (300 µM eugenol minus 0 µM)” value came to 0.0056 pmol/microgram.

In the case of B3, the “concentration increase value of the cAMP (300 µM eugenol minus 0 µM)” value was found to be 0.0017 pmol/microgram.

Regarding B4, the “concentration increase value of the cAMP (300 µM eugenol minus 0 µM)” value was determined as 0.0109 pmol/microgram.

On to B5, for which the “concentration increase value of the cAMP (300 µM eugenol minus 0 µM)” value was 0.0185 pmol/microgram.

Consider B6, for which the “concentration increase value of the cAMP (300 µM eugenol minus 0 µM)” value is 0.0009 pmol/microgram.

Regarding B7, the “concentration increase value of the cAMP (300 µM eugenol minus 0 µM)” value came out at 0.0061 pmol/microgram.

The target in a further test is Gαolf (G protein alpha subunit which is specifically expressed on an olfactory epithelium) (mouse) (UniProt Q8CGK7).
Experiment: not given
beta-1 adrenergic receptor (β1AR) came in with a concentration of cAMP (EIA, normalised to protein) after isoproterenol of 0.956 pmol/µg.

Source of the values: patent US20130065244A1, “METHOD FOR PRODUCING cAMP USING [sequence] OLFACTORY RECEPTOR” (published 2013).
